One may read the pKi as −log10 of the Ki, conventionally taken in molar units. A word on the Kd: it is the constant that tells how readily two partners part at equilibrium. The low end stands for tighter binding, the high end for weaker binding.

Ten molecules from PMC8205236, “Quantitative Profiling of WNT-3A Binding to All Human Frizzled Paralogues in HEK293 Cells by NanoBiT/BRET Assessments” (ACS Pharmacology & Translational Science, 2021) can be followed below.

The chains are these.
T1: HiBiT-tagged human FZD4 (human, UniProt Q9ULV1 37-537)
T1 construct: the receptor's own signal peptide is probably replaced; also called HiBiT-FZD4; WT FZD4; source: HEK293A, transiently transfected, on live cells; not shown: HiBiT, N-terminal, kept
T1 sequence (looked up): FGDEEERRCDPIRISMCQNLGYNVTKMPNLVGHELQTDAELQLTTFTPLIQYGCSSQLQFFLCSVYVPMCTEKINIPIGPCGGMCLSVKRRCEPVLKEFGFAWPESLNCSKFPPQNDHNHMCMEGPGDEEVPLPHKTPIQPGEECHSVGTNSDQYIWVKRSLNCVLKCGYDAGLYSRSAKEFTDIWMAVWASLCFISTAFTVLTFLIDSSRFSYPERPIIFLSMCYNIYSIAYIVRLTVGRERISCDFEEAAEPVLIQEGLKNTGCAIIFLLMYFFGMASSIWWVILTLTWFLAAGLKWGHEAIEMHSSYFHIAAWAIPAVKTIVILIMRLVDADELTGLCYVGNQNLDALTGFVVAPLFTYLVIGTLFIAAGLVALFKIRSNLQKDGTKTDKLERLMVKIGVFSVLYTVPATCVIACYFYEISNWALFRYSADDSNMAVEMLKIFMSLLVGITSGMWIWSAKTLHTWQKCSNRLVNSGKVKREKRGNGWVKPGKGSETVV

B1: untagged human WNT-5B (ligand, UniProt Q9H1J7 18-359, looked up)
chain: QLLTDANSWWSLALNPVQRPEMFIIGAQPVCSQLPGLSPGQRKLCQLYQEHMAYIGEGAKTGIKECQHQFRQRRWNCSTADNASVFGRVMQIGSRETAFTHAVSAAGVVNAISRACREGELSTCGCSRTARPKDLPRDWLWGGCGDNVEYGYRFAKEFVDAREREKNFAKGSEEQGRVLMNLQNNEAGRRAVYKMADVACKCHGVSGSCSLKTCWLQLAEFRKVGDRLKEKYDSAAAMRVTRKGRLELVNSRFTQPTPEDLVYVDPSPDYCLRNESTGSLGTQGRLCNKTSEGMDGCELMCCGRGYNQFKSVQVERCHCKFHWCCFVRCKKCTEIVDQYICK
notes: WNT-5B, human, untagged recombinant protein; source: bought: RnD Systems/Biotechne, purified
B2: untagged human/mouse WNT-5A (ligand, UniProt P41221 62-380, looked up)
chain: IIGAQPLCSQLAGLSQGQKKLCHLYQDHMQYIGEGAKTGIKECQYQFRHRRWNCSTVDNTSVFGRVMQIGSRETAFTYAVSAAGVVNAMSRACREGELSTCGCSRAARPKDLPRDWLWGGCGDNIDYGYRFAKEFVDARERERIHAKGSYESARILMNLHNNEAGRRTVYNLADVACKCHGVSGSCSLKTCWLQLADFRKVGDALKEKYDSAAAMRLNSRGKLVQVNSRFNSPTTQDLVYIDPSPDYCVRNESTGSLGTQGRLCNKTSEGMDGCELMCCGRGYDQFKTVQTERCHCKFHWCCYVKCKKCTEIVDQFVCK
notes: WNT-5A, printed as human/mouse, untagged recombinant protein; human WNT-5A is P41221; source: bought: RnD Systems/Biotechne, purified
B3: untagged human WNT-3A (ligand, UniProt P56704 19-352, looked up)
chain: SYPIWWSLAVGPQYSSLGSQPILCASIPGLVPKQLRFCRNYVEIMPSVAEGIKIGIQECQHQFRGRRWNCTTVHDSLAIFGPVLDKATRESAFVHAIASAGVAFAVTRSCAEGTAAICGCSSRHQGSPGKGWKWGGCSEDIEFGGMVSREFADARENRPDARSAMNRHNNEAGRQAIASHMHLKCKCHGLSGSCEVKTCWWSQPDFRAIGDFLKDKYDSASEMVVEKHRESRGWVETLRPRYTYFKVPTERDLVYYEASPNFCEPNPETGSFGTRDRTCNVSSHGIDGCDLLCCGRGHNARAERRREKCRCVFHWCCYVSCQECTRVYDVHTCK
notes: WNT-3A, human, untagged recombinant protein; source: bought: RnD Systems/Biotechne, purified
B4: untagged human WNT-11 (ligand, UniProt O96014 25-354, looked up)
chain: IKWLALSKTPSALALNQTQHCKQLEGLVSAQVQLCRSNLELMHTVVHAAREVMKACRRAFADMRWNCSSIELAPNYLLDLERGTRESAFVYALSAAAISHAIARACTSGDLPGCSCGPVPGEPPGPGNRWGGCADNLSYGLLMGAKFSDAPMKVKKTGSQANKLMRLHNSEVGRQALRASLEMKCKCHGVSGSCSIRTCWKGLQELQDVAADLKTRYLSATKVVHRPMGTRKHLVPKDLDIRPVKDSELVYLQSSPDFCMKNEKVGSHGTQDRQCNKTSNGSDSCDLMCCGRGYNPYTDRVVERCHCKYHWCCYVTCRRCERTVERYVCK
notes: WNT-11, human, untagged recombinant protein; source: bought: RnD Systems/Biotechne, purified
B5: untagged human WNT-10B (ligand)
chain: not shown
notes: WNT-10B, human, untagged recombinant protein; source: bought: RnD Systems/Biotechne, purified
B6: FZD4-CD86 chimeric protein (HiBiT-tagged) (receptor)
chain: FGDEEERRCDPIRISMCQNLGYNVTKMPNLVGHELQTDAELQLTTFTPLIQYGCSSQLQFFLCSVYVPMCTEKINIPIGPCGGMCLSVKRRCEPVLKEFGFAWPESLNCSKFPPQNDHNHMCMEGPGDEEVPLPHKTPIQPGEECHSVGTNSDQYIWVKRSLNCVLKCGYDAGLYS
B7: FZD6-FZD4 chimeric protein (receptor)
chain: HSLFTCEPITVPRCMKMAYNMTFFPNLMGHYDQSIAAVEMEHFLPLANLECSPNIETFLCKAFVPTCIEQIHVVPPCRKLCEKVYSDCKKLIDTFGIRWPEELECDRLQYCDETVPVTFDPHTEFLGPQKKTEQVQRDIGFWCPRHLKTSGGQGYKFLGIDQCAPPCPNMYFKSDELEFAKSFMAVWASLCFISTAFTVLTFLIDSSRFSYPERPIIFLSMCYNIYSIAYIVRLTVGRERISCDFEEAAEPVLIQEGLKNTGCAIIFLLMYFFGMASSIWWVILTLTWFLAAGLKWGHEAIEMHSSYFHIAAWAIPAVKTIVILIMRLVDADELTGLCYVGNQNLDALTGFVVAPLFTYLVIGTLFIAAGLVALFKIRSNLQKDGTKTDKLERLMVKIGVFSVLYTVPATCVIACYFYEISNWALFRYSADDSNMAVEMLKIFMSLLVGITSGMWIWSAKTLHTWQKCSNRLVNSGKVKREKRGNGWVKPGKGSETVV
B8: FZD8-CD86 chimeric protein (HiBiT-tagged) (receptor)
chain: ASAKELACQEITVPLCKGIGYNYTYMPNQFNHDTQDEAGLEVHQFWPLVEIQCSPDLKFFLCSMYTPICLEDYKKPLPPCRSVCERAKAGCAPLMRQYGFAWPDRMRCDRLPEQGNPDTLCMDYNRTDLTTAAPSPPRRLPPPPPGEQPPSGSGHGRPPGARPPHRGGGRGGGGGDAAAPPARGGGGGGKARPPGGGAAPCEPGCQCRAPMVSVSSERHPLYNRVKTGQIANCALPCHNPFFSQDERA
B9: FZD4-FZD6 chimeric protein (receptor)
chain: FGDEEERRCDPIRISMCQNLGYNVTKMPNLVGHELQTDAELQLTTFTPLIQYGCSSQLQFFLCSVYVPMCTEKINIPIGPCGGMCLSVKRRCEPVLKEFGFAWPESLNCSKFPPQNDHNHMCMEGPGDEEVPLPHKTPIQPGEECHSVGTNSDQYIWVKRSLNCVLKCGYDAGLYSIGTVSIFCLCATLFTFLTFLIDVRRFRYPERPIIYYSVCYSIVSLMYFIGFLLGDSTACNKADEKLELGDTVVLGSQNKACTVLFMLLYFFTMAGTVWWVILTITWFLAAGRKWSCEAIEQKAVWFHAVAWGTPGFLTVMLLAMNKVEGDNISGVCFVGLYDLDASRYFVLLPLCLCVFVGLSLLLAGIISLNHVRQVIQHDGRNQEKLKKFMIRIGVFSGLYLVPLVTLLGCYVYEQVNRITWEITWVSDHCRQYHIPCPYQAKAKARPELALFMIKYLMTLIVGISAVFWVGSKKTCTEWAGFFKRNRKRDPISESRRVLQESCEFFLKHNSKVKHKKKHYKPSSHKLKVISKSMGTSTGATANHGTSAVAITSHDYLGQETLTEIQTSPETSMREVKADGASTPRLREQDCGEPASPAASISRLSGEQVDGKGQAGSVSESARSEGRISPKSDITDTGLAQSNNLQVPSSSEPSSLKGSTSLLVHPVSGVRKEQGGGCHSDT
B10: FZD4-FZD8 chimeric protein (receptor)
chain: FGDEEERRCDPIRISMCQNLGYNVTKMPNLVGHELQTDAELQLTTFTPLIQYGCSSQLQFFLCSVYVPMCTEKINIPIGPCGGMCLSVKRRCEPVLKEFGFAWPESLNCSKFPPQNDHNHMCMEGPGDEEVPLPHKTPIQPGEECHSVGTNSDQYIWVKRSLNCVLKCGYDAGLYSFTVFWIGLWSVLCFVSTFATVSTFLIDMERFKYPERPIIFLSACYLFVSVGYLVRLVAGHEKVACSGGAPGAGGAGGAGGAAAGAGAAGAGAGGPGGRGEYEELGAVEQHVRYETTGPALCTVVFLLVYFFGMASSIWWVILSLTWFLAAGMKWGNEAIAGYSQYFHLAAWLVPSVKSIAVLALSSVDGDPVAGICYVGNQSLDNLRGFVLAPLVIYLFIGTMFLLAGFVSLFRIRSVIKQQDGPTKTHKLEKLMIRLGLFTVLYTVPAAVVVACLFYEQHNRPRWEATHNCPCLRDLQPDQARRPDYAVFMLKYFMCLVVGITSGVWVWSGKTLESWRSLCTRCCWASKGAAVGGGAGATAAGGGGGPGGGGGGGPGGGGGPGGGGGSLYSDVSTGLTWRSGTASSVSYPKQMPLSQV

For one assay, the target named is T1, HiBiT-tagged human FZD4. In words: FRET or BRET; NanoBiT/BRET competition binding on live HEK293A cells with HiBiT-FZD4: 30 min preincubation with purified untagged WNT at 37 °C, then eGFP-WNT-3A to 0.4 nM for 240 min, then LgBiT and furimazine; pKi by Cheng-Prusoff. The following applies: one partner purified. (BRET reads energy transfer from a luciferase to a nearby fluorophore.)
Regarding B1, the “0.4 nM eGFP-WNT-3A binding displaced (%)” value came out at 78.3%, the pKi came out at 6.93 and the ΔBRET was -0.004.
On to B2, for which the “0.4 nM eGFP-WNT-3A binding displaced (%)” value came out at 78.4%, the pKi worked out at 7.08 and the ΔBRET was -0.004.
In the same order, the values of B3 are 40.8%, 7.26 and -0.002.
The like results for B4 were, in that order, 58.4%, 8.9 and -0.001.
Turning to B5, the “0.4 nM eGFP-WNT-3A binding displaced (%)” value was 34.5%, the pKi came to 7.87 and the ΔBRET was -0.001.

The next assay concerns the target T2, eGFP-tagged mouse WNT-3A (mouse, UniProt P27467 19-352).
T2 construct: WNT-3A, mouse, eGFP-tagged, secreted into conditioned medium; Co-expressed with His-Afamin, which may accompany the WNT in the medium; Two batches (16.7 nM and 16.2 nM); also called eGFP-WNT-3A; eGFP-Wnt-3A; source: HEK293F suspension cells, cotransfected with pCS2+-eGFP-WNT-3A and pCMV-His-Afamin; conditioned medium, concentrated 5-fold and medium-exchanged (not purified)
In words: FRET or BRET; NanoBiT/BRET saturation binding on live HEK293A cells (setup 1): eGFP-WNT-3A conditioned medium 16.7 pM to 16.7 nM, 5% FBS, 10 mM HEPES, 240 min at 37 °C, then LgBiT and furimazine for 10 min; one-site specific model (normalised logarithmic fits for pKd). Particulars: partners not purified.
On to B6, for which the Kd was found to be 142 nM. This lies in the sub-micromolar range.
For B7, binding was characterised by a dissociation constant (Kd) of 5.8 nM.
Still for that read-out and setting: as for B8, the figure is 22.9 nM; as for B9, 3.5 nM.
Still for that read-out and setting: as for B10, the figure is 2.9 nM.
